According to patent publication US20260139049A1 (PEDIATRIC IMMUNITY AND HEALTHCARE GUANGZHOU BIOTECHNOLOGY, published 2026):
Residue numbers refer to the chain shown, from its start.

B1: PiH1004 (antibody, human IgG1, kappa, V domains shown)
VH: QVQLVQSGAEVKKPGASVKVSCKASGYTFTDYNMHWVRQAPGQSLEWIGYVNPNNGATSYNQKFKGRATMTVDKSTSTVYMELSSLRSEDTAVYNCARWDGYVYYYGLDYWGQGTLVTVSS
VL: DIQMTQSPSSLSASVGDRVTITCKASDHINNWLAWYQQKPGKVPKLLISGATSLETGVPSRFSGSGSGTDYTLTISSLQPEDVATYYCQQYWSTPYTFGGGTKLEIKR
notes: humanized from 51C10H4; IgG1; also called 51-VH4 + VL3
B2: PiH1004-M1 (antibody, human IgG1, kappa, V domains shown)
VH: B1 VH with G56A
VL: B1 VL
notes: PiH1004 with G of NG in heavy-chain CDR2 changed to A; also called improved antibody PiH1004-M1
B3: PiH2007 (antibody, human IgG1, kappa, V domains shown)
VH: B1 VH with V51I, S59N, M70I, K74T, T76A, V79A, L108M
VL: B1 VL with D17G, V43A, L73F, V83I, S93N
notes: humanized from 54B5A7; IgG1; also called 54-VH3 + VL4
B4: 20A3-M2 (antibody, human IgG1, kappa, V domains shown)
VH: QAYLQQSGAELVRSGASVKMSCKASGYTFTSYNMHWVKQTPGQGLEWIGYIYPGNQGTNYNQKFKGKATLTADTSSSTAYMQISSLTSEDSAVYFCARWKYYDKTTHYALDYWGQGTLVTVSS
VL: DIVLTQSPASLAVSLGQWATISCRASKSVSTSGYSYIHWHQQKPGQPPKLLIYLASNLESGVPARFSGSGSGTDFTLNIHPVEEEDAATYYCHHSRELPFTFGSGTKLEIKR
notes: 20A3-2A7 with G of NG in heavy-chain CDR2 changed to Q; also called improved antibody 20A3-M2
B5: 20A3-M1 (antibody, human IgG1, kappa, V domains shown)
VH: B4 VH with Q56A
VL: B4 VL
notes: 20A3-2A7 with G of NG in heavy-chain CDR2 changed to A; also called improved antibody 20A3-M1

How the values were obtained:
human CLDN6 [1] = target: T1, human CLDN6 (human, UniProt P56747 1-220); experiment: FACS on HEK293T-CLDN6 cells
T1 construct: whole, on cells; four-transmembrane protein; also called claudin-6; HEK293T-CLDN6
T1 sequence (looked up): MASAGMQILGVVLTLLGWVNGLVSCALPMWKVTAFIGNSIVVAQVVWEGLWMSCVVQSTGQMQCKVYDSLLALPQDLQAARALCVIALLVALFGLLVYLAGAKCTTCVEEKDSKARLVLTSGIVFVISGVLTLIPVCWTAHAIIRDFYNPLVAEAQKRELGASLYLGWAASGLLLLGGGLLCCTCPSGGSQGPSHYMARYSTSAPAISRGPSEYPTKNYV
Description: (§1) To detect a binding capacity of a chimeric or humanized antibody to CLDN6, a CLDN6-expressing cell line HEK293T-CLDN6 and a CLDN6-negative control cell line HEK293T were washed three times with PBS. 1×10⁵ test cells and 50 μL of an antibody solution to be tested were added to a 96-well plate, and incubated at 4° C. for 1 h. The cells were then washed three times with PBS. […] Finally, cells were washed three times with PBS, and signals were read using FACS.
(§2) An EC50 value (a concentration of an antibody that binds to half of binding sites at equilibrium) is calculated through nonlinear regression.

human CLDN6 [2] = target: T1, human CLDN6; experiment: FACS on PA-1 tumour cells; target on the cells taken as CLDN6
Description: (§3) 50 μL of an antibody to be tested was added to a 96-well plate, then 1×10⁵ cells were added to each well, and incubation was conducted at 4° C. for 1 h. Cells were washed three times with PBS. […] Finally, cells were washed three times with PBS, and signals were read using FACS. A binding capacity of the antibody to each tumor cell was analyzed based on detection data.

human CLDN6 [3] = target: T1, human CLDN6; experiment: FACS on HepG2 tumour cells; target on the cells taken as CLDN6
Description: as §3

human CLDN6 [4] = target: T1, human CLDN6; experiment: FACS on HepG2 tumour cells, 5 µg/mL; target on the cells taken as CLDN6
Description: as §3

human CLDN6 [5] = target: T1, human CLDN6; experiment: FACS on HEK293T-CLDN6 cells; remark: listed apart in the source
Description: as §1, §2

human CLDN6 [6] = target: T1, human CLDN6; experiment: FACS on PA-1 tumour cells; target on the cells taken as CLDN6; remark: listed apart in the source
Description: as §3

human CLDN6 [7] = target: T1, human CLDN6; experiment: FACS on 293T-CLDN6 cells, 10 µg/mL
human CLDN9 = target: T2, human CLDN9 (human, UniProt O95484 1-217); experiment: FACS on 293T-CLDN9 cells, 10 µg/mL
T2 construct: whole, on cells; also called HEK293T-CLDN9
T2 sequence (looked up): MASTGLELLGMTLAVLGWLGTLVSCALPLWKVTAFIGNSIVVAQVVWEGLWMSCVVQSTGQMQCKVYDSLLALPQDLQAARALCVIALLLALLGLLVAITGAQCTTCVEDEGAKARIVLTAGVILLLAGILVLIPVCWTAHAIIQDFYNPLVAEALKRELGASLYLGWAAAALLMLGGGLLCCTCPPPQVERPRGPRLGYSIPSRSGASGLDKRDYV
Description: as §3, with “1× 10⁵” for “1×10⁵”, “Binding capacities” for “A binding capacity”, “CLDN9, CLDN3, and CLDN4 were” for “each tumor cell was”, “analyzed separately” for “analyzed”

| Binder | Geom.Mean (human CLDN6 [4]) | Geom.Mean (human CLDN6 [7]) | Geom.Mean (human CLDN9) | other results |
| --- | --- | --- | --- | --- |
| B1 | 851 |  |  | EC50 (human CLDN6 [1]): 0.363 mg/L; EC50 (human CLDN6 [2]): 0.491 mg/L; EC50 (human CLDN6 [3]): 0.843 mg/L |
| B2 | 892 |  |  |  |
| B3 |  |  |  | EC50 (human CLDN6 [5]): 0.897 mg/L; EC50 (human CLDN6 [6]): 1.17 mg/L |
| B4 |  | 34000 | 297 |  |
| B5 |  | 40200 | 243 |  |
